Starred links: 1 amine or outer side, 2 acyl side, 3 side chain; linkers in the order of their positions; H or OH if unused. Positions of bridges follow the written chain, without caps; N, C: chain ends. Non-standard residues stand in square brackets, D forms with d. Primed or numbered codes have the meaning given here. PyrS2″ = (S)-3-amino-1-((pent-4-en-1-yloxy)carbonyl)pyrrolidine-3-carboxylic acid (stapling residue), C=CCCCOC(=O)N1CC[C@@](N[*:1])(C(=O)[*:2])C1; B5(4) = 2,2-bis(4-pentenyl)glycine = 2-amino-2-(pent-4-en-1-yl)hept-6-enoic acid (stitching residue), C=CCCCC(CCCC=C)(N[*:1])C(=O)[*:2]; (EtSSpy)GluE = (S)-2-amino-5-oxo-5-(2-(pyridin-2-yldisulfaneyl)ethoxy)pentanoic acid, O=C(CC[C@H](N[*:1])C(=O)[*:2])OCCSSc1ccccn1; TfeGA = (S)-2-amino-3-((carboxymethyl)(2,2,2-trifluoroethyl)amino)propanoic acid, O=C([C@H](CN(CC(=O)[*:3])CC(F)(F)F)N[*:1])[*:2]; (EtSSPh)GluE = (S)-2-amino-5-oxo-5-(2-(phenyldisulfaneyl)ethoxy)pentanoic acid, O=C(CC[C@H](N[*:1])C(=O)[*:2])OCCSSc1ccccc1; (EtSSPh)AspE = (S)-2-amino-4-oxo-4-(2-(phenyldisulfaneyl)ethoxy)butanoic acid, O=C(C[C@H](N[*:1])C(=O)[*:2])OCCSSc1ccccc1; (EtSSHex)AspE = (S)-2-amino-4-(2-(hexyldisulfaneyl)ethoxy)-4-oxobutanoic acid, CCCCCCSSCCOC(=O)C[C@H](N[*:1])C(=O)[*:2]; (Morph)GlnR = (S)-2-amino-5-morpholino-5-oxopentanoic acid, O=C(CC[C@H](N[*:1])C(=O)[*:2])N1CCOCC1; B5(3) = 2,2-bis(4-pentenyl)glycine (stitching residue), C=CCCCC(CCCC=C)(N[*:1])C(=O)[*:2]; GluSH = (S)-2-amino-5-mercapto-5-oxopentanoic acid, O=C(CC[C@H](N[*:1])C(=O)[*:2])S[*:3]; Phe(3-COOH) = N[C@@H](Cc1cccc(C(=O)O)c1)C(=O)O; 2F3MeF = Cc1cccc(C[C@H](N[*:1])C(=O)[*:2])c1F; Phe(3-Cl) = N[C@@H](Cc1cccc(Cl)c1)C(=O)O; Phe(4-Cl) = N[C@@H](Cc1ccc(Cl)cc1)C(=O)O; Bta = N[C@@H](Cc1csc2ccccc12)C(=O)O; αAllylPro = C=CC[C@@]1(C(=O)O)CCCN1; tBuAla = CC(C)(C)C[C@H](N)C(=O)O; 2Thi = N[C@@H](Cc1cccs1)C(=O)O; 3Thi = N[C@@H](Cc1ccsc1)C(=O)O; S8 = C=CCCCCCC[C@](C)(N)C(=O)O; TfeGA″ = not defined here
T1: B-cat-Halo (beta-catenin HaloTag NanoBRET construct expressed in HEK293 cells) (UniProt P35222 1-781)
T1 sequence (looked up): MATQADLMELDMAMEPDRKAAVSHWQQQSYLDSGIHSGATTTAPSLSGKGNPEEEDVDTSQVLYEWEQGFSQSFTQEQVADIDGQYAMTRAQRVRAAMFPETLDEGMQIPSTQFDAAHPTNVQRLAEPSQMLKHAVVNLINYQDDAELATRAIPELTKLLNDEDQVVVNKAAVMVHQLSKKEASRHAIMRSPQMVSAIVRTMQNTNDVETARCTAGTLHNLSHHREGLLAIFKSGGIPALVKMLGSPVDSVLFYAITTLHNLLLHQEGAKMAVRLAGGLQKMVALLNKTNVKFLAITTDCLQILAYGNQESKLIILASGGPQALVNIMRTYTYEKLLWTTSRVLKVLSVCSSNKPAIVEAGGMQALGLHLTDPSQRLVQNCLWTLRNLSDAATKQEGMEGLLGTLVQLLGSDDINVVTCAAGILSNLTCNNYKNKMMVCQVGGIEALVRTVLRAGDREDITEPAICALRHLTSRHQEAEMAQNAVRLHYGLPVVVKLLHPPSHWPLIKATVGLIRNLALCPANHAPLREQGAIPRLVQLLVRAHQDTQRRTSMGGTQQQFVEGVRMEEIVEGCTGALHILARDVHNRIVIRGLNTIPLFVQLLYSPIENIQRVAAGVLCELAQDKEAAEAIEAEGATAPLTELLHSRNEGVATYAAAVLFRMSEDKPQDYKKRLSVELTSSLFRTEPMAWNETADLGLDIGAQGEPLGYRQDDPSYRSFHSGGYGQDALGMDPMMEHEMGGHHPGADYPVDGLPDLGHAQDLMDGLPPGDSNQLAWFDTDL

T2: B-cat-Halo (UniProt P35222 1-781)
T2 sequence (looked up): T1 sequence (looked up)

T3: full-length beta-Catenin (Uniprot ID P35222) (Homo sapiens (Human), UniProt P35222 1-781)
T3 construct: the AlphaScreen used a Histidine (Nickel Chelate) detection kit, so a His tag is likely but not described; also called B-Catenin; bCat
T3 sequence: T1 sequence (looked up)

B1: I-1942 (peptide)
peptide: Ac-[αAllylPro]D[tBuAla][B5(4)]D[TfeGA″]AAF[(NHBn)GlnR][PyrS2″][3Thi][Bta]Q-NH2
modifications: staple 1-4, 4-11; reading uncertain
B2: I-1958 (peptide)
peptide: Ac-[αAllylPro]D[tBuAla][B5(4)]D[(EtSSPh)GluE]AAFL[PyrS2″][3Thi][Bta]Q-NH2
modifications: staple 1-4, 4-11; also: isomer composition, later eluting HPLC peak
B3: I-1953 (peptide)
peptide: Ac-[αAllylPro][(EtSSPh)AspE][tBuAla][B5(4)]DDAAFL[PyrS2″][3Thi][Bta]Q-NH2
modifications: staple 1-4, 4-11; also: isomer composition, later eluting HPLC peak
B4: I-1959 (peptide)
peptide: Ac-[αAllylPro][(EtSSHex)AspE][tBuAla][B5(4)]DDAAFL[PyrS2″][3Thi][Bta]Q-NH2
modifications: staple 1-4, 4-11; also: isomer composition, earlier eluting HPLC peak
B5: I-1962 (peptide)
peptide: Ac-[αAllylPro]D[tBuAla][B5(4)]D[(EtSSHex)AspE]AAFL[PyrS2″][3Thi][Bta]Q-NH2
modifications: staple 1-4, 4-11
B6: I-1952 (peptide)
peptide: Ac-[αAllylPro][(EtSSPh)AspE][tBuAla][B5(4)]DDAAFL[PyrS2″][3Thi][Bta]Q-NH2
modifications: staple 1-4, 4-11; also: isomer composition, earlier eluting HPLC peak
B7: I-1961 (peptide)
peptide: Ac-[αAllylPro]D[tBuAla][B5(4)][(EtSSHex)AspE]DAAFL[PyrS2″][3Thi][Bta]Q-NH2
modifications: staple 1-4, 4-11
B8: I-1943 (peptide)
peptide: Ac-[αAllylPro]D[tBuAla][B5(4)]D[TfeGA]AAF[(Morph)GlnR][PyrS2″][3Thi][Bta]Q-NH2
modifications: staple 1-4, 4-11
B9: I-1949 (peptide)
peptide: Ac-[αAllylPro]D[tBuAla][B5(4)]D[GluSH]AAFL[PyrS2″][3Thi][Bta]Q-NH2
modifications: staple 1-4, 4-11; also: isomer composition, later eluting HPLC peak
B10: I-1951 (peptide)
peptide: Ac-[αAllylPro]D[tBuAla][B5(4)]D[(EtSSpy)GluE]AAFL[PyrS2″][3Thi][Bta]Q-NH2
modifications: staple 1-4, 4-11
B11: I-1960 (peptide)
peptide: Ac-[αAllylPro][(EtSSHex)AspE][tBuAla][B5(4)]DDAAFL[PyrS2″][3Thi][Bta]Q-NH2
modifications: staple 1-4, 4-11
B12: I-1954 (peptide)
peptide: Ac-[αAllylPro]D[tBuAla][B5(4)][(EtSSPh)AspE]DAAFL[PyrS2″][3Thi][Bta]Q-NH2
modifications: staple 1-4, 4-11; also: isomer composition, earlier eluting HPLC peak
B13: I-2222 (peptide)
peptide: Ac-[αAllylPro]D[tBuAla][B5(3)]D[Phe(3-COOH)]AAFL[PyrS2″][2F3MeF][Phe(4-Cl)]S-NH2
modifications: staple 1-4, 4-11
B14: I-2223 (peptide)
peptide: Ac-[αAllylPro]D[tBuAla][B5(3)]D[Phe(3-COOH)]QAFL[PyrS2″][2F3MeF][Phe(4-Cl)]A-NH2
modifications: staple 1-4, 4-11
B15: I-2224 (peptide)
peptide: Ac-[αAllylPro]D[tBuAla][B5(3)]D[Phe(3-COOH)]AAFL[PyrS2″][3Thi][Phe(3-Cl)]Q-NH2
modifications: staple 1-4, 4-11
B16: I-325 (peptide)
peptide: Ac-[αAllylPro]DA[B5(4)]DDAA[2Thi]V[S8]FWQ-NH2
modifications: staple 1-4, 4-11
notes: Ac-PL3-Asp-Ala-B5-Asp-Asp-Ala-Ala-2Thi-Val-S8-Phe-Trp-Gln-NH2; stapled peptide composition

These binders were tested against T1, B-cat-Halo (beta-catenin HaloTag …) (assay: cell-based or functional assay).
In the case of B1, the “NanoBRET Abs IC50” value is reported as 7.9 µM. In the case of B2, the “NanoBRET Abs IC50” value is reported as greater than 20 µM. For B3, the “NanoBRET Abs IC50” value was greater than 20 µM. B4 was tested, and the “NanoBRET Abs IC50” value was greater than 20 µM. In the case of B5, the “NanoBRET Abs IC50” value is reported as greater than 20 µM. With B6 the “NanoBRET Abs IC50” value was greater than 20 µM. In the case of B7, the “NanoBRET Abs IC50” value is reported as greater than 20 µM. B8 was tested, and the “NanoBRET Abs IC50” value was 3.8 µM. With B9 the “NanoBRET Abs IC50” value was 28.5 µM. With B10 the “NanoBRET Abs IC50” value was greater than 20 µM. With B11 the “NanoBRET Abs IC50” value was 20.4 µM. In the case of B12, the “NanoBRET Abs IC50” value is reported as greater than 20 µM.

These binders were tested against T2, B-cat-Halo (assay: cell-based or functional assay).
B13 was tested, and the “NanoBRET Abs IC50” value was 11.7 µM. B14 was tested, and the “NanoBRET Abs IC50” value was 9 µM. With B15 the “NanoBRET Abs IC50” value was 14.2 µM.

What follows are binders tested against T3, full-length beta-Catenin (Uniprot ID …) (assay: FP competition vs 5FAM-TCF4(10-53) probe on full-length beta-catenin).
Experimental: The plate was incubated protected from light for 60 minutes at 20° C. prior to read. Reads were performed on a CLARIOstar plate reader (BMG Labtech) in duplicate, and data were fitted to a 1:1 binding model with hill slope using an in-house script. All provided concentrations are final concentrations.
Work on B16 yielded an EC50 of 1.31 µM.

These binders were tested against T3, full-length beta-Catenin (Uniprot ID …) (assay: AlphaScreen competition vs biotin-TCF4(10-53) on full-length beta-catenin).
Experimental: Equal volume of the titrated peptide was added to the plate and incubated for 15 minutes at 20° C. Then 4 uL of donor and 4 uL acceptor beads at 10 ug/mL were added to the plate, for a 16 uL reaction pool and protected from light for 60 minutes at 20° C. prior to read. Reads were performed on a CLARIOstar plate reader (BMG Labtech) in duplicate, and data were fitted to a 1:1 binding model with hill slope using an in-house script. All provided concentrations are final concentrations.
In the case of B16, the EC50 is reported as 0.053 µM.
